Patent US20260167699A1 (Chugai, published 2026)

T1: FcγRIIb extracellular domain, C-terminal His tag (human, UniProt P31994 43-217)
T1 construct: extracellular domain; also called 2b
T1 sequence: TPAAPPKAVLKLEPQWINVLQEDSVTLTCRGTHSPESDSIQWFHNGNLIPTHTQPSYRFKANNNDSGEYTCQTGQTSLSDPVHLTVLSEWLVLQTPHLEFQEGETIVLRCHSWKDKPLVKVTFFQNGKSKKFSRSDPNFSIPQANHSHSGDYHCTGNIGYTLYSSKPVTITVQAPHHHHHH

T2: FcγRIIa(R) extracellular domain, C-terminal His tag (human, UniProt P12318 34-217)
T2 construct: extracellular domain; Allotype R131; also called 2aR
T2 sequence: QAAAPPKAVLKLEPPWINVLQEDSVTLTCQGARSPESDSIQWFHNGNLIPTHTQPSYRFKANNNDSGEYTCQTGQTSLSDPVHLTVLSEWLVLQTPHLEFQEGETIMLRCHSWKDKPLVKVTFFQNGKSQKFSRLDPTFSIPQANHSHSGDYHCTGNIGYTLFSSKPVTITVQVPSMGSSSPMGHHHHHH

T3: FcγRIIa(H) extracellular domain, C-terminal His tag (human, UniProt P12318 34-217)
T3 construct: extracellular domain; Allotype H131; also called 2aH
T3 sequence: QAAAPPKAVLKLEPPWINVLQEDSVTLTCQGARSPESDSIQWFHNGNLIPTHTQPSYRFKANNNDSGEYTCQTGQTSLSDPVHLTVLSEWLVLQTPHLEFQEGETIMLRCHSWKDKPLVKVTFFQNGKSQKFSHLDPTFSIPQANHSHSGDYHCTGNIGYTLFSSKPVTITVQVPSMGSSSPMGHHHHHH


Key:
Assay in all cases: SPR (Biacore); binding relative to GpH7-A5/GpH7-B3/GpL16-k0 x100;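 further: antibodies captured on a chip surface, soluble FcγR flowed over in HBS-EP+ running buffer at 25 °C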
[1] = target: T4, FcγRIa extracellular domain, C-terminal His tag (human, UniProt P12314 16-292)
T4 construct: extracellular domain; also called 1a

[2] = target: T1, FcγRIIb extracellular domain, …
[3] = target: T2, FcγRIIa(R) extracellular domain, …
[4] = target: T5, FcγRIIIa extracellular domain, C-terminal His tag (human, UniProt P08637 17-208)
T5 construct: extracellular domain; also called 3a

[5] = target: T3, FcγRIIa(H) extracellular domain, …

T4 sequence (P12314 other isoform, or with tags, fused parts or gaps): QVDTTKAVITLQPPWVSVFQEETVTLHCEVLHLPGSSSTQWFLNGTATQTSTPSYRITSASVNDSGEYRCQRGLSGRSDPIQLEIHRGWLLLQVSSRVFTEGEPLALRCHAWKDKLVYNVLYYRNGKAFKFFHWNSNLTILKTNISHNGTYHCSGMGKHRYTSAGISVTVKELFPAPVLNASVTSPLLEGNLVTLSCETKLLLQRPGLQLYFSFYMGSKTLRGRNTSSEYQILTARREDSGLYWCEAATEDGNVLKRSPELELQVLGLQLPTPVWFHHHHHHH
T5 sequence (P08637 other isoform, or with tags, fused parts or gaps): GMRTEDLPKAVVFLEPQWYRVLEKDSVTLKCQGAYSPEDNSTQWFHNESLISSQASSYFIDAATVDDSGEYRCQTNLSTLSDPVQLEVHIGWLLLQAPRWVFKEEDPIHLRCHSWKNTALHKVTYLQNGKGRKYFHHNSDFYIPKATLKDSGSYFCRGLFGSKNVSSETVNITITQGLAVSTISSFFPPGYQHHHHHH

Binder | He/Con 1a [1] [%] | He/Con 2b [2] [%] | He/Con 2aR [3] [%] | He/Con 3a [4] [%] | He/Con 2aH [5] [%]
GpH7-A5/GpH7-B3 variant P331_15Y/GpL16-k0 (antibody, human IgG1, kappa, He Ab: anti-glypican 3 IgG1 heterodimer, only the GpH7-B3 chain mutated; position in EU numbering; also called P331_I5Y; He Ab) heavy 1: not shown heavy 2: not shown light: DIVMTQSPLSLPVTPGEPASISCQASESLVHSNRNTYLHWYLQKPGQSPQLLIYKVSNRFSGVPDRFSGSGSGTDFTLKISRVEAEDVGVYYCSQNTHVPPTFGQGTKVEIERTVAAPSVFIFPPSDEQLKSGTASVVCLLNNFYPREAKVQWKVDNALQSGNSQESVTEQDSKDSTYSLSSTLTLSKADYEKHKVYACEVTHQGLSSPVTKSFNRGEC | 109 | 127 | 112 | 74.9 | 89
GpH7-A5/GpH7-B3 variant P331_16H/GpL16-k0 (antibody, human IgG1, kappa, He Ab: anti-glypican 3 IgG1 heterodimer, only the GpH7-B3 chain mutated; position in EU numbering; also called He Ab) heavy 1: not shown heavy 2: not shown light: DIVMTQSPLSLPVTPGEPASISCQASESLVHSNRNTYLHWYLQKPGQSPQLLIYKVSNRFSGVPDRFSGSGSGTDFTLKISRVEAEDVGVYYCSQNTHVPPTFGQGTKVEIERTVAAPSVFIFPPSDEQLKSGTASVVCLLNNFYPREAKVQWKVDNALQSGNSQESVTEQDSKDSTYSLSSTLTLSKADYEKHKVYACEVTHQGLSSPVTKSFNRGEC | 105 | 128 | 113 | 73.4 | 87.5
GpH7-A5/GpH7-B3 variant P331_18N/GpL16-k0 (antibody, human IgG1, kappa, He Ab: anti-glypican 3 IgG1 heterodimer, only the GpH7-B3 chain mutated; position in EU numbering; also called He Ab) heavy 1: not shown heavy 2: not shown light: DIVMTQSPLSLPVTPGEPASISCQASESLVHSNRNTYLHWYLQKPGQSPQLLIYKVSNRFSGVPDRFSGSGSGTDFTLKISRVEAEDVGVYYCSQNTHVPPTFGQGTKVEIERTVAAPSVFIFPPSDEQLKSGTASVVCLLNNFYPREAKVQWKVDNALQSGNSQESVTEQDSKDSTYSLSSTLTLSKADYEKHKVYACEVTHQGLSSPVTKSFNRGEC | 106 | 110 | 104 | 67.1 | 87.2
GpH7-A5/GpH7-B3 variant P331_19Q/GpL16-k0 (antibody, human IgG1, kappa, He Ab: anti-glypican 3 IgG1 heterodimer, only the GpH7-B3 chain mutated; position in EU numbering; also called He Ab) heavy 1: not shown heavy 2: not shown light: DIVMTQSPLSLPVTPGEPASISCQASESLVHSNRNTYLHWYLQKPGQSPQLLIYKVSNRFSGVPDRFSGSGSGTDFTLKISRVEAEDVGVYYCSQNTHVPPTFGQGTKVEIERTVAAPSVFIFPPSDEQLKSGTASVVCLLNNFYPREAKVQWKVDNALQSGNSQESVTEQDSKDSTYSLSSTLTLSKADYEKHKVYACEVTHQGLSSPVTKSFNRGEC | 108 | 94 | 96.1 | 73.9 | 91.6
GpH7-A5/GpH7-B3 variant P331_20W/GpL16-k0 (antibody, human IgG1, kappa, He Ab: anti-glypican 3 IgG1 heterodimer, only the GpH7-B3 chain mutated; position in EU numbering; also called He Ab) heavy 1: not shown heavy 2: not shown light: DIVMTQSPLSLPVTPGEPASISCQASESLVHSNRNTYLHWYLQKPGQSPQLLIYKVSNRFSGVPDRFSGSGSGTDFTLKISRVEAEDVGVYYCSQNTHVPPTFGQGTKVEIERTVAAPSVFIFPPSDEQLKSGTASVVCLLNNFYPREAKVQWKVDNALQSGNSQESVTEQDSKDSTYSLSSTLTLSKADYEKHKVYACEVTHQGLSSPVTKSFNRGEC | 107 | 123 | 109 | 71.9 | 85.8
GpH7-A5/GpH7-B3 variant S324_01G/GpL16-k0 (antibody, human IgG1, kappa, He Ab: anti-glypican 3 IgG1 heterodimer, only the GpH7-B3 chain mutated; position in EU numbering; also called He Ab) heavy 1: not shown heavy 2: not shown light: DIVMTQSPLSLPVTPGEPASISCQASESLVHSNRNTYLHWYLQKPGQSPQLLIYKVSNRFSGVPDRFSGSGSGTDFTLKISRVEAEDVGVYYCSQNTHVPPTFGQGTKVEIERTVAAPSVFIFPPSDEQLKSGTASVVCLLNNFYPREAKVQWKVDNALQSGNSQESVTEQDSKDSTYSLSSTLTLSKADYEKHKVYACEVTHQGLSSPVTKSFNRGEC | 93.2 | 106 | 94.4 | 114 | 110
GpH7-A5/GpH7-B3 variant S324_02A/GpL16-k0 (antibody, human IgG1, kappa, He Ab: anti-glypican 3 IgG1 heterodimer, only the GpH7-B3 chain mutated; position in EU numbering; also called He Ab) heavy 1: not shown heavy 2: not shown light: DIVMTQSPLSLPVTPGEPASISCQASESLVHSNRNTYLHWYLQKPGQSPQLLIYKVSNRFSGVPDRFSGSGSGTDFTLKISRVEAEDVGVYYCSQNTHVPPTFGQGTKVEIERTVAAPSVFIFPPSDEQLKSGTASVVCLLNNFYPREAKVQWKVDNALQSGNSQESVTEQDSKDSTYSLSSTLTLSKADYEKHKVYACEVTHQGLSSPVTKSFNRGEC | 96.9 | 102 | 99.9 | 113 | 114
